Assay results from US10344068B2, “Natriuretic polypeptides” (priority 2011, dated 2019).
Ends that are not written are not given here.

Columns and labels:
Format in all cases: cell-based
NPR-B (GC-B) = molecular target: T1, NPR-B (GC-B) (Homo sapiens, UniProt P20594); test: cGMP production in HEK 293 cells stably transfected to express NPR-B (GC-B); conditions: NPR-B+ HEK 293 cells; 10^-10 M, 10^-8 M or 10^-6 M for 10 minutes
T1 construct: expressed in transfected cells; host or cells: HEK 293
T1 sequence (P20594 23-1047): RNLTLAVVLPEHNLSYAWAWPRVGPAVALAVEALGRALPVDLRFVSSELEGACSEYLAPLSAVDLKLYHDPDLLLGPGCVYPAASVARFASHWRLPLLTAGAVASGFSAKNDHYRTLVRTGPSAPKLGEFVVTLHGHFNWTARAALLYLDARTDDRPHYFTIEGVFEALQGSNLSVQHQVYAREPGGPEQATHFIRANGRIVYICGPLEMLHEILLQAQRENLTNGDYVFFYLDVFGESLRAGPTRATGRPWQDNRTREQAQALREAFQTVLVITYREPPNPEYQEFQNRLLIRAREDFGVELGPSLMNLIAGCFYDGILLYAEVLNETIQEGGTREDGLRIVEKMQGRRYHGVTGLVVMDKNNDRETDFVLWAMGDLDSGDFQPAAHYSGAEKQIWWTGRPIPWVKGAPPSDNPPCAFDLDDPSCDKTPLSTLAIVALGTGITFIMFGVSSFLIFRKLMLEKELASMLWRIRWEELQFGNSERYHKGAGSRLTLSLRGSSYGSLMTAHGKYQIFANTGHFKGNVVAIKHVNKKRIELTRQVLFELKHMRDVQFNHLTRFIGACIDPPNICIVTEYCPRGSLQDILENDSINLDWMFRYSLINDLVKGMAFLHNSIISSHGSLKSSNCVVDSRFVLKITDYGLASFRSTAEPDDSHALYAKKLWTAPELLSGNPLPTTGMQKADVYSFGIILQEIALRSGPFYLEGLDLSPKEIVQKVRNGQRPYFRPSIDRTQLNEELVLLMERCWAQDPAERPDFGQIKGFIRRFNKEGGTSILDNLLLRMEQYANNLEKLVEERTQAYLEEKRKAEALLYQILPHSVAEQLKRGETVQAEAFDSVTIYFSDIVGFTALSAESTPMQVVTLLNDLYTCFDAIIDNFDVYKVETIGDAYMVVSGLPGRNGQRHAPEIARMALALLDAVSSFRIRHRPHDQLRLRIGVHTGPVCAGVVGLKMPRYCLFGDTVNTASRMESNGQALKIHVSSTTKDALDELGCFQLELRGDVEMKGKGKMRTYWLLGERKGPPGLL
Experimental: (§1) HEK 293 cells were stably transfected to express either NPR-A (GC-A) or NPR-B (GC-B) using Lipofectamine (Invitrogen, Grand Island, N.Y.). Transfected cells were maintained in Dulbecco's modified Eagle's medium supplemented with 10% fetal bovine serum, 100 U/mL penicillin, 100 U/mL streptomycin, and 250 μg/mL G418. The reagents were obtained from Invitrogen (Grand Island, N.Y.).
(§2) The following was performed to carry out cell stimulation and cGMP assays. Cells were plated in 6-well plates and treated as described elsewhere (Tsuruda et al., Circulation Research, 91:1127-1134 (2002)). Briefly, cells were incubated in Hank's balanced salt solution (Invitrogen, Carlsbad, Calif.) containing 20 mmol/L N-[2-hydroxyethyl]piperazine-N′[2-ethanesulfonic acid], 0.1% bovine serum albumin, and 0.5 mmol/L 3-isobutyl-1-methylzanthine (Sigma, St. Louis, Mo.). Treated cells received 10^−10 M, 10^−8M, or 10^−6 M of either BNP-Ang1-7 or Ang1-7BNP for 10 minutes. Cells were lysed in 300 μL 6% TCA and sonicated for 10 minutes. The samples were ether extracted four times in 4 volumes of ether, dried, and reconstituted in 500 μL cGMP assay buffer. The samples were assayed using a competitive RIA cGMP kit (Perkin-Elmer, Boston, Mass.) as described elsewhere (Steiner et al., J. Biol. Chem., 247:1106-1113 (1972)). Samples were corrected for dilution factors and protein concentration, and values were expressed as pmol cGMP/well. There was no cross-reactivity with ANP, BNP, CNP, and Endothelin-1, and less than 0.001 percent cross-reactivity with cAMP, GMP, GDP, ATP, and GTP.

[1] = test system: Human cardiac fibroblasts; test: cGMP production in human cardiac fibroblasts (competitive RIA cGMP kit); conditions: human cardiac fibroblasts (CFs); 10^-6 M, 10^-8 M or 10^-10 M of NP or cANG for 10 minutes
Experimental: cANG was custom-synthesized to have the sequence set forth in FIG. 4 and confirmed by high performance liquid chromatography and mass spectroscopy to have a molecular weight of 3080.6 Da. Human cardiac fibroblasts (CFs; ScienCell, San Diego, Calif.) were cultured in the manufacturer's fibroblast media (ScienCell, San Diego, Calif.) supplemented with fibroblast growth serum (FGS), fetal bovine serum (FBS), and Pen/Strep. Cells were treated at 80-90% confluency. Only cell passages 1 through 4 were used for experiments. To perform a cyclic GMP assay, the cells were treated as described previously (Huntley et al., J. Cell. Physiol., 209(3):943-9 (2006)). Briefly, cells were incubated in Hank's balanced salt solution (Invitrogen, Carlsbad, Calif.) containing 20 mmol/L N-[2-hydroxyethyl]piperazine-N′[2-ethanesulfonic acid], 0.1% bovine serum albumin, and 0.5 mmol/L 3-isobutyl-1-methylzanthine (Sigma, St. Louis, Mo.). Treated cells received 10^−6 M, 10^−8M, or 10^−10 M of NP or cANG for 10 minutes. Cells were lysed in 6% TCA and sonicated for 10 minutes. The samples were ether extracted four times in four volumes of ether, dried, and reconstituted in […] of cGMP assay buffer.
The samples were assayed using a competitive RIA cGMP kit (Perkin-Elmer, Boston, Mass.). Briefly, samples and standards were incubated with […] anti-human cGMP polyclonal antibody and I^125-antigen for 18 hours. Cyclic GMP assay buffer was added to the samples, and they were centrifuged for 20 minutes at 2500 rpm. The free fraction was aspirated off, and the bound fraction was counted and concentrations determined. Samples were corrected for dilution factors and protein concentration, and values were expressed as pmoles/mL.

NPR-A (GC-A) = molecular target: T2, NPR-A (GC-A) (Homo sapiens, UniProt P16066); test: cGMP production in HEK 293 cells stably transfected to express NPR-A (GC-A); conditions: NPR-A+ HEK 293 cells; 10^-10 M, 10^-8 M or 10^-6 M for 10 minutes
T2 construct: expressed in transfected cells; host or cells: HEK 293
T2 sequence (P16066 33-1061): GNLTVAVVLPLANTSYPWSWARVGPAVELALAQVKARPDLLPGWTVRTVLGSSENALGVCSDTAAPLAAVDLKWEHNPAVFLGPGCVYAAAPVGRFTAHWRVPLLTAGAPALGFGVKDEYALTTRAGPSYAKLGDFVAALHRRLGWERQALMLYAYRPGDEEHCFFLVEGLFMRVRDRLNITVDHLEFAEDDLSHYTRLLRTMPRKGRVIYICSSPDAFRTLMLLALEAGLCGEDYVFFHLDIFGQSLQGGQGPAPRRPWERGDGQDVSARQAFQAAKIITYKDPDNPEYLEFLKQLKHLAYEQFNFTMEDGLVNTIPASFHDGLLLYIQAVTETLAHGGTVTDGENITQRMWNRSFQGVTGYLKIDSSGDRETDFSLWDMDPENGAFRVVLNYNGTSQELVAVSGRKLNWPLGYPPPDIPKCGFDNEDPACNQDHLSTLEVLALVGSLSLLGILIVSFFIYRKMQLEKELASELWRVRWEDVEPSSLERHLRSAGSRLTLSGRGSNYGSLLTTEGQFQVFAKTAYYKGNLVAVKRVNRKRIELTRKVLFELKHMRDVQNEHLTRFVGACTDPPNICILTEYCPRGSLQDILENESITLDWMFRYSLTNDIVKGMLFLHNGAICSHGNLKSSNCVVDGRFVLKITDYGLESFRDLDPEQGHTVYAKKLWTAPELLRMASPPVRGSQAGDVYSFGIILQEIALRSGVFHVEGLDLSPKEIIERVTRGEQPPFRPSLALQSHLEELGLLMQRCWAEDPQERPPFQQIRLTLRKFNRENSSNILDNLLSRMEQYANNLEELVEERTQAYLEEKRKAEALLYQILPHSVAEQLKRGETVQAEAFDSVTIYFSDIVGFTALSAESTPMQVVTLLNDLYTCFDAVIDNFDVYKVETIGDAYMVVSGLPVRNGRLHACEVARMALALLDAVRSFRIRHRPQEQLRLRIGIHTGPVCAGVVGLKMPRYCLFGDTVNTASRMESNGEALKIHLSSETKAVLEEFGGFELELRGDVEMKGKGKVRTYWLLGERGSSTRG
Experimental: as §1, §2

Row | Molecule | cGMP production (NPR-B (GC-B)) | cGMP production [1] | cGMP production (NPR-A (GC-A))
1 | B-type natriuretic peptide [BNP] | Minimal cGMP production | resulted in cGMP production | induced cGMP production
2 | C-type natriuretic peptide (GLSKGCFGLKLDRIGSMSGLGC) [CNP] |  | resulted in cGMP production | 
3 | BNP-Ang1-7: chimeric polypeptide containing an N-terminus and ring structure of BNP and a C-terminal Ang-(1-7) (SPKMVQGSGCFGRKMDRISSSSGLGCDRVYIHP; not fully specified (bridges); cysteine pairing not given here) | Neither BNP-Ang1-7 nor Ang1-7BNP induced cGMP production |  | induced cGMP production
4 | cANG: chimeric polypeptide containing an N-terminus and ring structure of CNP and a C-terminal Ang-(1-7) (GLSKGCFGLKLDRIGSMSGLGCDRVYIHP; not fully specified (bridges); cysteine pairing not given here) |  | resulted in cGMP production | 
5 | CC[C@H](C)[C@@H]1NC(=O)[C@H](CCCNC(=N)N)NC(=O)[C@H](CC(=O)O)NC(=O)[C@H](CCSC)NC(=O)[C@H](CCCNC(=N)N)NC(=O)CNC(=O)CNC(=O)[C@H](Cc2ccccc2)NC(=O)[C@@H](NC(=O)[C@H](CO)NC(=O)[C@H](CO)NC(=O)[C@H](CCCNC(=N)N)NC(=O)[C@H](CCCNC(=N)N)NC(=O)[C@H](CC(C)C)NC(=O)[C@@H](N)CO)CSSC[C@@H](C(=O)N[C@@H](CC(N)=O)C(=O)N[C@@H](CO)C(=O)N[C@@H](Cc2ccccc2)C(=O)N[C@@H](CCCNC(=N)N)C(=O)N[C@@H](Cc2ccc(O)cc2)C(=O)O)NC(=O)CNC(=O)[C@H](CC(C)C)NC(=O)CNC(=O)[C@H](CO)NC(=O)[C@H](CCC(N)=O)NC(=O)[C@H](C)NC(=O)CNC1=O [ANP, atrial natriuretic peptide] |  | resulted in cGMP production | 
6 | Ang1-7BNP: chimeric polypeptide containing an N-terminal Ang-(1-7) and a ring structure and C-terminus of BNP | Neither BNP-Ang1-7 nor Ang1-7BNP induced cGMP production |  | induced cGMP production
7 | angiotensin-(1-7) [Ang1-7] | did not induce cGMP production |  | did not induce cGMP production
